Assay results as given in US20210163584A1 (Sanofi, published 2021).
Read-outs that look alike come from different tables or passages of the source.

Columns and labels:
[1] = target: T1, TGF-β1 (UniProt P01137 279-390); test: cell-based or functional assay
[2] = target: T1, TGF-β1; test: cell-based or functional assay; remark: listed apart in the source
[3] = target: T1, TGF-β1; test: cell-based or functional assay; remark: listed apart in the source
[4] = target: T1, TGF-β1; test: cell-based or functional assay; remark: listed apart in the source
[5] = target: T1, TGF-β1; test: SPR (Biacore); amine-coupled TGF-β1 on chip, antibody as analyte, kinetic fit
Text: Recombinant mAb1-D10 fusion variants of Example 7 were also quantitatively assessed for TGF-β1 binding using surface plasmon resonance (SPR) as detected by Biacore. Samples containing purified variants were passed over a sensor chip with amine-coupled TGF-β1 to determine the equilibrium constant, KD. A target immobilization level of less than 100 response units (RU) of TGF-β1 was chosen to minimize the potential for avidity effects arising from binding adjacent TGF-β1 molecules on the chip. The level of immobilization was determined by the change in response units after NHS/EDC activation of the chip surface, but before quenching with ethanolamine. The fusion variants, WT fusion variant F1, and mAb1 control were diluted to 30, 10, 3, 1 and 0.37 nM in HBS-EP buffer and passed over the TGF-β1 chip at 30 μL/min for 3 min, followed by 5 min dissociation in the same buffer. Between runs, the chip surface was regenerated to remove any bound antibody by passing two 30 sec injections of 40 mM HCl over the chip at a flow rate of 75 μL/min. […] Unexpectedly, the maximum signal (RU) elicited by the fusion variants decreased with increasing number of peptides, with variant F17 (D10-HC-D10/D10-LC, PAR=6) showing the lowest signal. […] A possible explanation of this decline may reflect electrostatic repulsion between the chip matrix (carboxymethyl dextran) and the negatively charged D10 peptides.

T1 sequence (P01137 279-390 limits assumed): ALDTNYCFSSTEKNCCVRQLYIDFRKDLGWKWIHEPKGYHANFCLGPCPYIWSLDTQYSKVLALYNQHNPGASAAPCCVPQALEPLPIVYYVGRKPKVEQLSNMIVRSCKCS

Row | Binder | half-maximal inhibition of IL-11 release (EC50), A549 cells [1] [pM] | IC50 (read off the curve); IL-11 release by A549 cells in response to TGF-β1 [2] [pM] | IC50 (read off the curve); IL-11 release by A549 cells in response to TGF-β1 [3] [pM] | IC50 (read off the curve); IL-11 release by A549 cells in response to TGF-β1 [4] [pM] | Kd [5] [pM] | koff [5] [s⁻¹] | kon [5] [M⁻¹ s⁻¹]
1 | mAb1 control conjugate (PAR=0) (antibody, mouse IgG1, kappa, hinge disulfides reduced; D10-maleimide peptide omitted; thiols blocked with N-ethylmaleimide) heavy: HVQLQQSGPELVRPGASVKLSCKASGYIFITYWMNWVKQRPGQGLEWIGQIFPASGSTNYNEMFEGKATLTVDTSSSTAYMQLSSLTSEDSAVYYCARGDGNYALDAMDYWGQGTSVTVSSAKTTPPSVYPLAPGSAAQTNSMVTLGCLVKGYFPEPVTVTWNSGSLSSGVHTFPAVLQSDLYTLSSSVTVPSSTWPSQTVTCNVAHPASSTKVDKKIVPRDCGCKPCICTVPEVSSVFIFPPKPKDVLTITLTPKVTCVVVDISKDDPEVQFSWFVDDVEVHTAQTKPREEQFNSTFRSVSELPIMHQDWLNGKEFKCRVNSAAFPAPIEKTISKTKGRPKAPQVYTIPPPKEQMAKDKVSLTCMITDFFPEDITVEWQWNGQPAENYKNTQPIMDTDGSYFVYSKLNVQKSNWEAGNTFTCSVLHEGLHNHHTEKSLSHSPGK light: NIVLTQSPASLAVSLGQRATISCRASESVDSYGNSFMHWYQQKSGQPPKLLIYLASNLESGVPARFSGSGSRTDFTLTIDPVEADDAATYYCQQNNEDPLTFGAGTKLELKRADAAPTVSIFPPSSEQLTSGGASVVCFLNNFYPKDINVKWKIDGSERQNGVLNSWTDQDSKDSTYSMSSTLTLTKDEYERHNSYTCEATHKTSTSPIVKSFNRNEC | ~100 | ~50 | – | – | – | – | –
2 | mAb1-D10 conjugate (PAR=9) (antibody, mouse IgG1, kappa, Ac-D10-C2-PEG12-C6-maleimide possibly on a light chain cysteine; Ac-D10-C2-PEG12-C6-maleimide on reduced hinge region cysteines; average 9 peptides per antibody (heavy and light chains together)) heavy: HVQLQQSGPELVRPGASVKLSCKASGYIFITYWMNWVKQRPGQGLEWIGQIFPASGSTNYNEMFEGKATLTVDTSSSTAYMQLSSLTSEDSAVYYCARGDGNYALDAMDYWGQGTSVTVSSAKTTPPSVYPLAPGSAAQTNSMVTLGCLVKGYFPEPVTVTWNSGSLSSGVHTFPAVLQSDLYTLSSSVTVPSSTWPSQTVTCNVAHPASSTKVDKKIVPRDCGCKPCICTVPEVSSVFIFPPKPKDVLTITLTPKVTCVVVDISKDDPEVQFSWFVDDVEVHTAQTKPREEQFNSTFRSVSELPIMHQDWLNGKEFKCRVNSAAFPAPIEKTISKTKGRPKAPQVYTIPPPKEQMAKDKVSLTCMITDFFPEDITVEWQWNGQPAENYKNTQPIMDTDGSYFVYSKLNVQKSNWEAGNTFTCSVLHEGLHNHHTEKSLSHSPGK light: NIVLTQSPASLAVSLGQRATISCRASESVDSYGNSFMHWYQQKSGQPPKLLIYLASNLESGVPARFSGSGSRTDFTLTIDPVEADDAATYYCQQNNEDPLTFGAGTKLELKRADAAPTVSIFPPSSEQLTSGGASVVCFLNNFYPKDINVKWKIDGSERQNGVLNSWTDQDSKDSTYSMSSTLTLTKDEYERHNSYTCEATHKTSTSPIVKSFNRNEC | ~100 | ~40 | – | – | – | – | –
3 | mAb1 F17 (antibody, mouse IgG1, kappa, Mouse IgG1 fusion variant, PAR 6; also called D10-HC-D10: D10-LC) heavy: DDDDDDDDDDHVQLQQSGPELVRPGASVKLSCKASGYIFITYWMNWVKQRPGQGLEWIGQIFPASGSTNYNEMFEGKATLTVDTSSSTAYMQLSSLTSEDSAVYYCARGDGNYALDAMDYWGQGTSVTVSSAKTTPPSVYPLAPGSAAQTNSMVTLGCLVKGYFPEPVTVTWNSGSLSSGVHTFPAVLQSDLYTLSSSVTVPSSTWPSQTVTCNVAHPASSTKVDKKIVPRDCGCKPCICTVPEVSSVFIFPPKPKDVLTITLTPKVTCVVVDISKDDPEVQFSWFVDDVEVHTAQTKPREEQFNSTFRSVSELPIMHQDWLNGKEFKCRVNSAAFPAPIEKTISKTKGRPKAPQVYTIPPPKEQMAKDKVSLTCMITDFFPEDITVEWQWNGQPAENYKNTQPIMDTDGSYFVYSKLNVQKSNWEAGNTFTCSVLHEGLHNHHTEKSLSHSPGKDDDDDDDDDD light: DDDDDDDDDDNIVLTQSPASLAVSLGQRATISCRASESVDSYGNSFMHWYQQKSGQPPKLLIYLASNLESGVPARFSGSGSRTDFTLTIDPVEADDAATYYCQQNNEDPLTFGAGTKLELKRADAAPTVSIFPPSSEQLTSGGASVVCFLNNFYPKDINVKWKIDGSERQNGVLNSWTDQDSKDSTYSMSSTLTLTKDEYERHNSYTCEATHKTSTSPIVKSFNRNEC | – | – | – | ~20 | 4150 | 0.00079 | 191000

Continued, values first:

Row | half-maximal inhibition of IL-11 release (EC50), A549 cells [1] [pM] | IC50 (read off the curve); IL-11 release by A549 cells in response to TGF-β1 [2] [pM] | IC50 (read off the curve); IL-11 release by A549 cells in response to TGF-β1 [3] [pM] | IC50 (read off the curve); IL-11 release by A549 cells in response to TGF-β1 [4] [pM] | Kd [5] [pM] | koff [5] [s⁻¹] | kon [5] [M⁻¹ s⁻¹] | Binder
4 | ~100 | ~60 | – | – | – | – | – | mAb1-D10 conjugate (PAR=5) (antibody, mouse IgG1, kappa, Ac-D10-C2-PEG12-C6-maleimide on reduced hinge region cysteines; average 5 peptides per antibody) heavy: HVQLQQSGPELVRPGASVKLSCKASGYIFITYWMNWVKQRPGQGLEWIGQIFPASGSTNYNEMFEGKATLTVDTSSSTAYMQLSSLTSEDSAVYYCARGDGNYALDAMDYWGQGTSVTVSSAKTTPPSVYPLAPGSAAQTNSMVTLGCLVKGYFPEPVTVTWNSGSLSSGVHTFPAVLQSDLYTLSSSVTVPSSTWPSQTVTCNVAHPASSTKVDKKIVPRDCGCKPCICTVPEVSSVFIFPPKPKDVLTITLTPKVTCVVVDISKDDPEVQFSWFVDDVEVHTAQTKPREEQFNSTFRSVSELPIMHQDWLNGKEFKCRVNSAAFPAPIEKTISKTKGRPKAPQVYTIPPPKEQMAKDKVSLTCMITDFFPEDITVEWQWNGQPAENYKNTQPIMDTDGSYFVYSKLNVQKSNWEAGNTFTCSVLHEGLHNHHTEKSLSHSPGK light: NIVLTQSPASLAVSLGQRATISCRASESVDSYGNSFMHWYQQKSGQPPKLLIYLASNLESGVPARFSGSGSRTDFTLTIDPVEADDAATYYCQQNNEDPLTFGAGTKLELKRADAAPTVSIFPPSSEQLTSGGASVVCFLNNFYPKDINVKWKIDGSERQNGVLNSWTDQDSKDSTYSMSSTLTLTKDEYERHNSYTCEATHKTSTSPIVKSFNRNEC
5 | ~100 | ~200 | ~200 | ~100 | 6000 | 0.001 | 167000 | mAb1 (mouse IgG1 anti-TGFβ monoclonal antibody, R&D Systems Clone #1D11) (antibody, Mouse IgG1, pan-specific anti-TGFβ; bought antibody used as control; also called unmodified mAb; mAb1 control) heavy: HVQLQQSGPELVRPGASVKLSCKASGYIFITYWMNWVKQRPGQGLEWIGQIFPASGSTNYNEMFEGKATLTVDTSSSTAYMQLSSLTSEDSAVYYCARGDGNYALDAMDYWGQGTSVTVSSAKTTPPSVYPLAPGSAAQTNSMVTLGCLVKGYFPEPVTVTWNSGSLSSGVHTFPAVLQSDLYTLSSSVTVPSSTWPSQTVTCNVAHPASSTKVDKKIVPRDCGCKPCICTVPEVSSVFIFPPKPKDVLTITLTPKVTCVVVDISKDDPEVQFSWFVDDVEVHTAQTKPREEQFNSTFRSVSELPIMHQDWLNGKEFKCRVNSAAFPAPIEKTISKTKGRPKAPQVYTIPPPKEQMAKDKVSLTCMITDFFPEDITVEWQWNGQPAENYKNTQPIMDTDGSYFVYSKLNVQKSNWEAGNTFTCSVLHEGLHNHHTEKSLSHSPGK light: NIVLTQSPASLAVSLGQRATISCRASESVDSYGNSFMHWYQQKSGQPPKLLIYLASNLESGVPARFSGSGSRTDFTLTIDPVEADDAATYYCQQNNEDPLTFGAGTKLELKRADAAPTVSIFPPSSEQLTSGGASVVCFLNNFYPKDINVKWKIDGSERQNGVLNSWTDQDSKDSTYSMSSTLTLTKDEYERHNSYTCEATHKTSTSPIVKSFNRNEC
